Read-outs that look alike come from different tables or passages of the source. Ends that are not written are not given here.
Key:
Assay in all cases: fluorescence polarisation
[1] = target: mbGIPC PDZ domain (Monosiga brevicollis GIPC homologue, original construct) (Monosiga brevicollis)
[2] = target: mbGIPC PDZ domain (Monosiga brevicollis GIPC homologue, original construct) (Monosiga brevicollis); remark: listed apart in the source
[3] = target: mbSHANK1 PDZ domain (Monosiga brevicollis SHANK1 homologue) (Monosiga brevicollis)

GAIP C-terminal peptide showed a Ki [1] of 0.14 µM.

For “tyrosinase-related protein 1 (TYRP1) C-terminal peptide”, the fold worse affinity than GAIP [1] was 10 fold.

“β-1 adrenergic receptor (B1AR) C-terminal peptide” gave a fold worse affinity than GAIP [1] of 20 fold.

For VEPKKSFDEI [decameric peptide matching the final 10 residues of the mbGIPC_(SFDEI) construct], the Ki [2] was > 1000 µM.

NDPAWDETNL (also: fluorescent label, kind and position not given here) [fluorescent β-PIX peptide] was tested, and the fold higher affinity than the GIRK3 peptide [3] was 62 fold.

From paper doi:10.1101/2020.05.28.121053
